Consider 4 molecules from patent US20240132599A1.

The target of assay [1] is Vδ1 TCR on human Vδ1-positive γδ T cells (human), A0A1B0. The settings on record: scale: nM.
For assay [2] the target is unchanged.
Assay [3] shares this target. The source holds these as a separate data set.
For assay [4] the target is unchanged. The source holds these as a separate data set.
Assay [5] has the same target. The source holds these as a separate data set.

Like-named read-outs stand apart in the source and are kept apart here.

Sequence of Vδ1 TCR on human Vδ1-positive γδ T cells (human), A0A1B0 (A0A1B0 entry or part of it mutant limits assumed): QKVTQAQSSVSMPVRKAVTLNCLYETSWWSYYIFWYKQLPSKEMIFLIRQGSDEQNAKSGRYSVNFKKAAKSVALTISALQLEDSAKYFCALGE

B1: ADT1-7 (parental) (antibody, IgG1, V domains shown)
VH: QVQLVESGGGLVKPGGSLRLSCAASGFTFSDYYMSWIRQAPGKGLEWVSYISSSGSTIYYADSVKGRFTISRDNAKNSLYLQMNSLRAEDTAVYYCARVDYADAFDIWGQGTLVTVSS
VL: ASDIQMTQSPSSLSASVGDRVTIACRAGQSIGTYLNWYQQKPGKAPKLLIYVASSLQSGVPSRFSGSGSGTEFTLTISSLQPEDFATYYCQQSYSTLLTFGRGTKVEIK
In the case of B1, in assay [1], the IC50 of Vδ1 TCR downregulation (% MFI of anti-Vδ1 staining after 2 h, two γδ cell donors) turned out to be 22.4.

B2: ADT1-4-2/ADT3-2 (bispecific antibody)
heavy: EVQLQQSGPGLVKPSQTLSLTCAISGDSVSSKSAAWNWIRQSPSRGLEWLGRTYYRSKWSTDYAASVKSRITINPDTSKNQLSLQLNSVTPEDTAVYYCARTWVGYVDRWGQGTLVTVSSASTKGPSVFPLAPSSKSTSGGTAALGCLVKDYFPEPVTVSWNSGALTSGVHTFPAVLQSSGLYSLSSVVTVPSSSLGTQTYICNVNHKPSNTKVDKKVEPKSCDKTHTCPPCPAPELAGAPSVFLFPPKPKDTLMISRTPEVTCVVVDVSHEDPEVKFNWYVDGVEVHNAKTKPREEQYNSTYRVVSVLTVLHQDWLNGKEYKCKVSNKALPAPIEKTISKAKGQPREPQVYTLPPSRDELEEGPVSLTCLVKGFYPSDIAVEWESTYGPENNYKTTPPVLDSDGSFFLYSKLTVSYWRWYKGNVFSCSVMHEALHNHYTQKSLSLSPG
light: DIQMTQSPPALSASVGDRVTITCRASQDINDWLAWYQHKPGKAPKLLIYDASSLESGVPLRFSGSGSGTEFTLTISSLQPDDFATYYCQQKYSAPQVTFGQGTRLEIKRTVAAPSVFIFPPSDEQLKSGTASVVCLLNNFYPREAKVQWKVDNALQSGNSQESVTEQDSKDSTYSLSSTLTLSKADYEKHKVYACEVTHQGLSSPVTKSFNRGEC
In assay [2], B2 registered a Vδ1 TCR down-regulation (A375 co-culture): % change (at EC100 saturation) of 96.8% and a Vδ1 TCR down-regulation (A375 co-culture): EC50 of 0.95 pM. Also, in assay [3], the Vδ1 TCR down-regulation (A375 co-culture): % change (at saturation) stood at 102%, the Vδ1 TCR down-regulation (A375 co-culture): EC50 came out at 1.42 pM and the Vδ1 TCR down-regulation (A375 co-culture): EC95 was 37.9 pM.

B3: ADT1-4-2/ADT3-1 (bispecific antibody)
heavy: EVQLQQSGPGLVKPSQTLSLTCAISGDSVSSKSAAWNWIRQSPSRGLEWLGRTYYRSKWSTDYAASVKSRITINPDTSKNQLSLQLNSVTPEDTAVYYCARTWVGYVDRWGQGTLVTVSSASTKGPSVFPLAPSSKSTSGGTAALGCLVKDYFPEPVTVSWNSGALTSGVHTFPAVLQSSGLYSLSSVVTVPSSSLGTQTYICNVNHKPSNTKVDKKVEPKSCDKTHTCPPCPAPELAGAPSVFLFPPKPKDTLMISRTPEVTCVVVDVSHEDPEVKFNWYVDGVEVHNAKTKPREEQYNSTYRVVSVLTVLHQDWLNGKEYKCKVSNKALPAPIEKTISKAKGQPREPQVYTLPPSRDETDDGPVSLTCLVKGFYPSDIAVEWESTYGPENNYKTTPPVLDSDGSFFLYSKLTVSYWRWYKGNVFSCSVMHEALHNHYTQKSLSLSPG
light: DIQMTQSPPALSASVGDRVTITCRASQDINDWLAWYQHKPGKAPKLLIYDASSLESGVPLRFSGSGSGTEFTLTISSLQPDDFATYYCQQKYSAPQVTFGQGTRLEIKRTVAAPSVFIFPPSDEQLKSGTASVVCLLNNFYPREAKVQWKVDNALQSGNSQESVTEQDSKDSTYSLSSTLTLSKADYEKHKVYACEVTHQGLSSPVTKSFNRGEC
B3: the Vδ1 TCR down-regulation (A375 co-culture): EC50 (read off the curve) in assay [4] was 10 pM. Further, in assay [5], the Vδ1 TCR down-regulation (A375 co-culture): % change (at saturation) turned out to be 46%, the Vδ1 TCR down-regulation (A375 co-culture): EC95 is 101 pM, the Vδ1 TCR down-regulation (A431 co-culture): % change (at saturation) came out at 81.1% and the Vδ1 TCR down-regulation (A431 co-culture): EC95 stood at 7.9 pM.

B4: ADT1-4/ADT3-1 (bispecific antibody, human IgG1)
heavy: QVQLQQSGPGLVKPSQTLSLTCAISGDSVSSKSAAWNWIRQSPSRGLEWLGRTYYRSKWSTDYAASVKSRITINPDTSKNQLSLQLNSVTPEDTAVYYCARTWSGYVDVWGQGTLVTVSSASTKGPSVFPLAPSSKSTSGGTAALGCLVKDYFPEPVTVSWNSGALTSGVHTFPAVLQSSGLYSLSSVVTVPSSSLGTQTYICNVNHKPSNTKVDKKVEPKSCDKTHTCPPCPAPELAGAPSVFLFPPKPKDTLMISRTPEVTCVVVDVSHEDPEVKFNWYVDGVEVHNAKTKPREEQYNSTYRVVSVLTVLHQDWLNGKEYKCKVSNKALPAPIEKTISKAKGQPREPQVYTLPPSRDETDDGPVSLTCLVKGFYPSDIAVEWESTYGPENNYKTTPPVLDSDGSFFLYSKLTVSYWRWYKGNVFSCSVMHEALHNHYTQKSLSLSPG
light: ASDIQMTQSPPALSASVGDRVTITCRASQDINDWLAWYQHKPGKAPKLLIYDASSLESGVPSRFSGSGSGTEFTLTISSLQPDDFATYYCQQSYSTPQVTFGQGTRLEIKRTAAAPSVFIFPPSDEQLKSGTASVVCLLNNFYPREAKVQWKVDNALQSGNSQESVTEQDSKDSTYSLSSTLTLSKADYEKHKLYACEVTHQGLSSPVTKSFNRGEC
In the case of B4, in assay [5], the Vδ1 TCR down-regulation (A375 co-culture): % change (at saturation) was 34%, the Vδ1 TCR down-regulation (A375 co-culture): EC95 turned out to be 5900 pM, the Vδ1 TCR down-regulation (A431 co-culture): % change (at saturation) amounted to 80.3% and the Vδ1 TCR down-regulation (A431 co-culture): EC95 came out at 26.3 pM.
